The record followed here is patent EP4628512A1 (Innovent Biologics (Suzhou) Co., Ltd., dated 2025).

For experiment [1], the target named is T1, human VEGFC (R&D) (human, UniProt P49767 103-227).
T1 construct: also called hVEGFC; recombinant human VEGFC protein
T1 sequence (looked up): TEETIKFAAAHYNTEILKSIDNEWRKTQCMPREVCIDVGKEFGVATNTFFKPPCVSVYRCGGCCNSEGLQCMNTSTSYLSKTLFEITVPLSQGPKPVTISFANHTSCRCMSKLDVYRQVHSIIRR
The experiment can be described thus: BLI (ForteBio), bivalent binding, 30 C. On the technique in general: BLI is a label-free optical method that tracks binding on a fibre tip over time.

For experiment [2], the target named is T2, human VEGF165 (R&D) (human, UniProt P15692-4 27-191).
T2 construct: also called VEGFA; human VEGFA
T2 sequence (P15692 other isoform, or with tags, fused parts or gaps limits assumed): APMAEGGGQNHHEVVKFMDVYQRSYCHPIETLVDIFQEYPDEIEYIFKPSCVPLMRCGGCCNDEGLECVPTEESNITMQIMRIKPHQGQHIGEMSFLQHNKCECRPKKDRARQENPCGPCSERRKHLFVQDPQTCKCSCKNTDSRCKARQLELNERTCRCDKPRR
The experiment can be described thus: BLI (ForteBio), bivalent binding, 30 C.

Experiment [3] addresses T3, human Ang2 (Beijing Sino Biological) (human, UniProt O15123 19-496, limits assumed).
T3 construct: Antigen of the BLI and SPR experiments; also called angiopoietin 2; ANGPT2
T3 sequence (looked up): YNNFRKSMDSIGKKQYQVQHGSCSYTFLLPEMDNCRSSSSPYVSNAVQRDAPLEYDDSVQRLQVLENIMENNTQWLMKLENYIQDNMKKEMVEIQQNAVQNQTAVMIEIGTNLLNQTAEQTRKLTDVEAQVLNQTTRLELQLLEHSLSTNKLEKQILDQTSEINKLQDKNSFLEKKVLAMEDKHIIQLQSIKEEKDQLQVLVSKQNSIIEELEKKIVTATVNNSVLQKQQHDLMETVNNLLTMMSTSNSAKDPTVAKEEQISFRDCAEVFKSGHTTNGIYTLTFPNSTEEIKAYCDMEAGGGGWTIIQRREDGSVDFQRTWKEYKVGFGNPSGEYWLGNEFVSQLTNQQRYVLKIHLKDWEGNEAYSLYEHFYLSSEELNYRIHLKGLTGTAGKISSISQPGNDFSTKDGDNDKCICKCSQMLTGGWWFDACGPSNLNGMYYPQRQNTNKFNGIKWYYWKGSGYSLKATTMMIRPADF
Nature of the experiment: BLI (ForteBio), bivalent binding, 30 C.

Experiment [4] has as its target T3, human Ang2 (Beijing Sino Biological). The experiment can be described thus: BLI (ForteBio), bivalent binding, 30 C; * beyond the limit of detection.
The target in experiment [5] is T1, human VEGFC (R&D). Nature of the experiment: SPR (Biacore T200), CM5 chip, bivalent binding, 1:1 binding model.
The target of experiment [6] is T1, human VEGFC (R&D). Nature of the experiment: BLI (ForteBio), bivalent binding, 30 C; * beyond the limit of detection.
Experiment [7] has as its target T2, human VEGF165 (R&D). Nature of the experiment: SPR (Biacore T200), CM5 chip, 1:1 binding model. (In general: Surface plasmon resonance follows binding to a sensor surface in real time, without labels.)
In experiment [8] the target is T2, human VEGF165 (R&D). Nature of the experiment: BLI (ForteBio), bivalent binding, 30 C; * beyond the limit of detection.
In experiment [9] the target is T3, human Ang2 (Beijing Sino Biological). Nature of the experiment: SPR (Biacore T200), CM5 chip, bivalent binding, 1:1 binding model.

A value given as a limit tells only on which side of the number the result lay.

B1: IAR044-039 (other)
chain: SDTGRPFVEMYSEIPEIIHMTEGRELVIPCRVTSPNITVTLKKFPLDTLIPDGKRIIWDSRKGFIISNATYKEIGLLTCEATVNGHLYKTNYLTHRQTNTIIDVVLSPSHGIELSVGEKLVLNCTARTELNVGIDFNWEYPSSKHQHKKLVNRDLKTQSGSEMKKFLSTLTIDGVTRSDQGLYTCAASSGLMTKKNSTFVRVHEKESKYGPPCPPCPPCGGGGGGGGGGEVQLLESGGGLVQPGGSLRLSCAASGFALDYYAIGWFRQAPGKGLEGVSCISSGEGSTYYADSVKGRFTISRDNSKNTVYLQMNSLRAEDTAVYYCATDSRGDDVACEGLRRNEYDYWGQGTLVTVSSGGGGGGGGGGEVQLVESGGGLVQPGGSLRLSCAASGSSFSPYAMGWYRQAPGKQRELVSATSEGGFTLYADSVKGRFTISRDNSKNTVYLQMNSLRAEDTAVYYCYMHWRGSDPENYWGQGTQVTVSS
notes: Trispecific fusion protein: VEGFA mini-Trap, hinge linker, anti-Ang2 VHH, linker, anti-VEGFC VHH
For orientation: koff means the rate constant with which the complex falls apart. Low readings indicate a long-lived complex, high ones a short-lived complex. A word on the kon: it is the rate constant with which the complex forms. On to B1, for which the Kd in the experiment with human VEGFC (R&D) [1] turned out to be 1.01 nM; with human VEGF165 (R&D) [2], 0.582 nM; in experiment [3], 0.705 nM. Moreover, the values for the off-rate constant (koff) (with human VEGFC (R&D) [1]; with human VEGF165 (R&D) [2]; in [3]) were 0.000227 s⁻¹, 0.000272 s⁻¹ and 0.000427 s⁻¹, respectively. Further, the values for the kon (with human VEGFC (R&D) [1]; in the experiment with human VEGF165 (R&D) [2]; in [3]) were 225000 M⁻¹ s⁻¹, 468000 M⁻¹ s⁻¹ and 606000 M⁻¹ s⁻¹, respectively.

B2: IAR044-030 (other)
chain: EVQLLESGGGLVQPGGSLRLSCAASGFALDYYAIGWFRQAPGKGLEGVSCISSGEGSTYYADSVKGRFTISRDNSKNTVYLQMNSLRAEDTAVYYCATDSRGDDVACEGLRRNEYDYWGQGTLVTVSSGGGGGGGGGGSDTGRPFVEMYSEIPEIIHMTEGRELVIPCRVTSPNITVTLKKFPLDTLIPDGKRIIWDSRKGFIISNATYKEIGLLTCEATVNGHLYKTNYLTHRQTNTIIDVVLSPSHGIELSVGEKLVLNCTARTELNVGIDFNWEYPSSKHQHKKLVNRDLKTQSGSEMKKFLSTLTIDGVTRSDQGLYTCAASSGLMTKKNSTFVRVHEKESKYGPPCPPCPPCGGGGGGGGGGEVQLVESGGGLVQPGGSLRLSCAASGSSFSPYAMGWYRQAPGKQRELVSATSEGGFTLYADSVKGRFTISRDNSKNTVYLQMNSLRAEDTAVYYCYMHWRGSDPENYWGQGTQVTVSS
notes: No Fc; also called anti-VEGFA/VEGFC/Ang2 multi-specific fusion protein
B2: the Kd with human VEGFC (R&D) [1] is no more than 1.04 nM; with human VEGF165 (R&D) [2] it was no more than 0.515 nM; with human VEGFC (R&D) [5], less than 0.234 nM; in experiment [3], no more than 0.206 nM; with human VEGF165 (R&D) [7] it was 0.151 nM; in experiment [9], 0.00932 nM. Further, the kon turned out to be 193000 M⁻¹ s⁻¹ with human VEGFC (R&D) [1]; 389000 M⁻¹ s⁻¹ with human VEGF165 (R&D) [2]; 42800 M⁻¹ s⁻¹ with human VEGFC (R&D) [5]; 973000 M⁻¹ s⁻¹ in [3]; 399000 M⁻¹ s⁻¹ with human VEGF165 (R&D) [7]; 1.89e+06 M⁻¹ s⁻¹ in experiment [9]. Besides, the dissociation rate constant (koff) in experiment [4] was no more than 0.0002 s⁻¹; in the experiment with human VEGFC (R&D) [5], less than 1e-05 s⁻¹; with human VEGFC (R&D) [6] it was no more than 0.0002 s⁻¹; in the experiment with human VEGF165 (R&D) [7], 6.01e-05 s⁻¹; with human VEGF165 (R&D) [8], no more than 0.0002 s⁻¹; in [9], 1.76e-05 s⁻¹.

B3: IAR044-040 (other)
chain: SDTGRPFVEMYSEIPEIIHMTEGRELVIPCRVTSPNITVTLKKFPLDTLIPDGKRIIWDSRKGFIISNATYKEIGLLTCEATVNGHLYKTNYLTHRQTNTIIDVVLSPSHGIELSVGEKLVLNCTARTELNVGIDFNWEYPSSKHQHKKLVNRDLKTQSGSEMKKFLSTLTIDGVTRSDQGLYTCAASSGLMTKKNSTFVRVHEKEKTHTCPPCPPCGGGGGGGGGGEVQLLESGGGLVQPGGSLRLSCAASGFALDYYAIGWFRQAPGKGLEGVSCISSGEGSTYYADSVKGRFTISRDNSKNTVYLQMNSLRAEDTAVYYCATDSRGDDVACEGLRRNEYDYWGQGTLVTVSSGGGGGGGGGGEVQLVESGGGLVQPGGSLRLSCAASGSSFSPYAMGWYRQAPGKQRELVSATSEGGFTLYADSVKGRFTISRDNSKNTVYLQMNSLRAEDTAVYYCYMHWRGSDPENYWGQGTQVTVSS
notes: as for B1
In the case of B3, in the experiment with human VEGFC (R&D) [1], the Kd was 0.885 nM, the koff worked out at 0.000209 s⁻¹ and the kon is 236000 M⁻¹ s⁻¹. Moreover, in the experiment with human VEGF165 (R&D) [2], the Kd worked out at 0.609 nM, the koff amounted to 0.000293 s⁻¹ and the kon came to 481000 M⁻¹ s⁻¹. In experiment [3], this molecule came in with a Kd of 0.783 nM, a koff of 0.00051 s⁻¹ and a kon of 652000 M⁻¹ s⁻¹.

B4: IAR044-038 (other)
chain: SDTGRPFVEMYSEIPEIIHMTEGRELVIPCRVTSPNITVTLKKFPLDTLIPDGKRIIWDSRKGFIISNATYKEIGLLTCEATVNGHLYKTNYLTHRQTNTIIDVVLSPSHGIELSVGEKLVLNCTARTELNVGIDFNWEYPSSKHQHKKLVNRDLKTQSGSEMKKFLSTLTIDGVTRSDQGLYTCAASSGLMTKKNSTFVRVHEKEPKSSPPCPPCPAPCGGGGGGGGGGEVQLLESGGGLVQPGGSLRLSCAASGFALDYYAIGWFRQAPGKGLEGVSCISSGEGSTYYADSVKGRFTISRDNSKNTVYLQMNSLRAEDTAVYYCATDSRGDDVACEGLRRNEYDYWGQGTLVTVSSGGGGGGGGGGEVQLVESGGGLVQPGGSLRLSCAASGSSFSPYAMGWYRQAPGKQRELVSATSEGGFTLYADSVKGRFTISRDNSKNTVYLQMNSLRAEDTAVYYCYMHWRGSDPENYWGQGTQVTVSS
notes: as for B1
For the molecule B4, the Kd with human VEGFC (R&D) [1] is no more than 0.92 nM; with human VEGF165 (R&D) [2] it was 0.668 nM; in experiment [3], 0.475 nM. In addition, the values for the kon (in the experiment with human VEGFC (R&D) [1]; with human VEGF165 (R&D) [2]; in experiment [3]) were 217000 M⁻¹ s⁻¹, 450000 M⁻¹ s⁻¹ and 597000 M⁻¹ s⁻¹, respectively. The koff with human VEGF165 (R&D) [2] was 0.0003 s⁻¹; in the experiment with human VEGFC (R&D) [6], no more than 0.0002 s⁻¹; in experiment [3] it was 0.000283 s⁻¹.

B5: IAR044-032 (other)
chain: EVQLLESGGGLVQPGGSLRLSCAASGFALDYYAIGWFRQAPGKGLEGVSCISSGEGSTYYADSVKGRFTISRDNSKNTVYLQMNSLRAEDTAVYYCATDSRGDDVACEGLRRNEYDYWGQGTLVTVSSGGGGGGGGGGSDTGRPFVEMYSEIPEIIHMTEGRELVIPCRVTSPNITVTLKKFPLDTLIPDGKRIIWDSRKGFIISNATYKEIGLLTCEATVNGHLYKTNYLTHRQTNTIIDVVLSPSHGIELSVGEKLVLNCTARTELNVGIDFNWEYPSSKHQHKKLVNRDLKTQSGSEMKKFLSTLTIDGVTRSDQGLYTCAASSGLMTKKNSTFVRVHEKEKTHTCPPCPPCGGGGGGGGGGEVQLVESGGGLVQPGGSLRLSCAASGSSFSPYAMGWYRQAPGKQRELVSATSEGGFTLYADSVKGRFTISRDNSKNTVYLQMNSLRAEDTAVYYCYMHWRGSDPENYWGQGTQVTVSS
notes: as for B2
For B5, the Kd was no more than 1.01 nM with human VEGFC (R&D) [1]; no more than 0.517 nM in the experiment with human VEGF165 (R&D) [2]; less than 0.276 nM with human VEGFC (R&D) [5]; no more than 0.22 nM in [3]; 0.203 nM in the experiment with human VEGF165 (R&D) [7]; 0.012 nM in experiment [9]. The kon in the experiment with human VEGFC (R&D) [1] is 197000 M⁻¹ s⁻¹; with human VEGF165 (R&D) [2] it was 387000 M⁻¹ s⁻¹; in the experiment with human VEGFC (R&D) [5], 36200 M⁻¹ s⁻¹; in [3], 908000 M⁻¹ s⁻¹; in the experiment with human VEGF165 (R&D) [7], 382000 M⁻¹ s⁻¹; in experiment [9], 1.63e+06 M⁻¹ s⁻¹. For the same molecule, the koff was no more than 0.0002 s⁻¹ in experiment [4]; less than 1e-05 s⁻¹ with human VEGFC (R&D) [5]; no more than 0.0002 s⁻¹ in the experiment with human VEGFC (R&D) [6]; 7.75e-05 s⁻¹ with human VEGF165 (R&D) [7]; no more than 0.0002 s⁻¹ with human VEGF165 (R&D) [8]; 1.92e-05 s⁻¹ in [9].
